The values that follow come from paper PMC2660430.

The chains are these.
B1: PfTrx1 (wild type thioredoxin) [P. falciparum] / PfSAHH (recombinant S-adenosyl-L-homocysteine hydrolase) [P. falciparum strain 3D7] (parent)
chain 1: MVKIVTSQAEFDSIISQNELVIVDFFAEWCGPCKRIAPFYEECSKTYTKMVFIKVDVDEVSEVTEKENITSMPTFKVYKNGSSVDTLLGANDSALKQLIEKYAA
chain 2: MVENKSKVKDISLAPFGKMQMEISENEMPGLMRIREEYGKDQPLKNAKITGCLHMTVECALLIETLQKLGAQIRWCSCNIYSTADYAAAAVSTLENVTVFAWKNETLEEYWWCVESALTWGDGDDNGPDMIVDDGGDATLLVHKGVEYEKLYEEKNILPDPEKAKNEEERCFLTLLKNSILKNPKKWTNIAKKIIGVSEETTTGVLRLKKMDKQNELLFTAINVNDAVTKQKYDNVYGCRHSLPDGLMRATDFLISGKIVVICGYGDVGKGCASSMKGLGARVYITEIDPICAIQAVMEGFNVVTLDEIVDKGDFFITCTGNVDVIKLEHLLKMKNNAVVGNIGHFDDEIQVNELFNYKGIHIENVKPQVDRITLPNGNKIIVLARGRLLNLGCATGHPAFVMSFSFCNQTFAQLDLWQNKDTNKYENKVYLLPKHLDEKVALYHLKKLNASLTELDDNQCQFLGVNKSGPFKSNEYRY
B2: Plrx (wild type plasmoredoxin, recombinant) [P. falciparum] / PfSAHH (recombinant S-adenosyl-L-homocysteine hydrolase) [P. falciparum strain 3D7] (parent)
chain 1: MACQVDNPPKTYPNDKTAEYEKYANYMNYLYYYQNNELKKIDSSYFKDKYLGLFFGASWCKYCVTFIDSLNIFKKNFPNVEIIYIPFDRTYQEYQSFLKNTNFYALPFDNYLYICKKYQIKNLPSFMLITPNNNILVKDAAQLIKTDEYINNLKSLIKNYIIHPKTFQFNNRFFDLFRN
chain 2: B1 chain 2

Variants of B1 are the subject of the first experiment. The experiment in a line: SPR. The note with it: with PfSAHH (recombinant S-adenosyl-L-homocysteine hydrolase) [P. falciparum strain 3D7]; Maximum response at end of analyte injection; SAHH on the sensor surface oxidized with 0.5 mM DTNB; 30 µl of analyte, 10 µM in HBS buffer; pre-injection …; parent: 28; read off a plot.
For chain 1 C30S C33S, the response (RD (normalized)) was found to be 21.
Still for that read-out and setting: next, chain 1 C33S: 97.

In another experiment the parent is B2. The experiment in a line: SPR. The note with it: with PfSAHH (recombinant S-adenosyl-L-homocysteine hydrolase) [P. falciparum strain 3D7]; Maximum response at end of analyte injection; SAHH on the sensor surface oxidized with 0.5 mM DTNB; 30 µl of analyte, 10 µM in HBS buffer; pre-injection …; parent: 99; read off a plot.
Consider chain 1 C63S, for which the response (RD (normalized)) came to 28.
